In US20260055143A1, “HIGH AFFINITY VARIANTS OF SH2 DOMAINS” (Axoiya Inc., priority 2023, published 2026):
Positions count from the first letter of the chain named. Values belong to the binder of their own block, whether it stands above or below them.

Tests used:
[1] = biological target: pTyr-containing peptide (pEZ) derived from Ezrin, PPV{pTyr}EPVS; assay: fluorescence polarization; fold change over wt Fes SH2
[2] = biological target: pTyr-containing peptide (pEZ) derived from Ezrin, PPV{pTyr}EPVS; assay: phage ELISA, phage-displayed clone on immobilized peptide
[3] = biological target: pTyr-containing peptide (pEZ) derived from Ezrin, PPV{pTyr}EPVS; assay: fluorescence polarization, purified SH2 domain with fluorescein-labelled ezrin phosphopeptide

B2: sFes^3, superbinder Fes SH2 domain variant (designed binder)
chain: MKIEEHHHHHHSSGKLGLNDIFEAQKIEWHESSGEDLYFQSGTTMDDYKDDDDKGGSEVQKPLHEQLWYHGAIPRAEVAELLVHSGDFLVRESPRIQEYVLSVLWDGLPRHFIIQSLDNLYRLEGEGFPSIPLLIDHLLSTQQPLTKKSGVVLHRAVPSR
- Fold Change [1]: 95.9 fold
- binding signal for pEZ over that for the unphosphorylated peptide EZ [2]: 10 fold
- IC50 [3]: 14 nM

B6: sFes^5, superbinder Fes SH2 domain variant (designed binder)
chain: B2 chain with P94I, R95S, I96K, E98G, I113L
- Fold Change [1]: 33.8 fold
- binding signal for pEZ over that for the unphosphorylated peptide EZ [2]: 10 fold
- IC50 [3]: 39.7 nM

Further binders by falling IC50 [3], results first:

- Fold Change [1]: 28 fold
- binding signal for pEZ over that for the unphosphorylated peptide EZ [2]: 10 fold
- IC50 [3]: 48 nM
B5: sFes^6, superbinder Fes SH2 domain variant (designed binder)
chain: B2 chain with L89I, P94Q, R95T, I96Y, Q97P, E98G

- Fold Change [1]: 77 fold
- binding signal for pEZ over that for the unphosphorylated peptide EZ [2]: 10 fold
- IC50 [3]: 17.4 nM
B1: sFes^4, superbinder Fes SH2 domain variant (designed binder)
chain: B2 chain with P94Q, R95G, I96R, Q97K, E98V

- Fold Change [1]: 344 fold
- binding signal for pEZ over that for the unphosphorylated peptide EZ [2]: 10 fold
- IC50 [3]: 3.9 nM
B3: sFes^2, superbinder Fes SH2 domain variant (designed binder)
chain: B2 chain with S93R, P94Q, I96K

- Fold Change [1]: 493 fold
- binding signal for pEZ over that for the unphosphorylated peptide EZ [2]: 10 fold
- IC50 [3]: 2.7 nM
B4: sFes^1 (SuperFes), superbinder Fes SH2 domain variant (designed binder)
chain: B2 chain with S93G, P94Q, R95S, I96Q, Q97P, E98D
